For one data set, the target named is beta-arrestin 1 (UniProt P49407). The note with it: 2'-F pyrimidines (2'F-C, 2'F-U); Kd assay buffer not stated separately; selection buffer F: 20 mM HEPES pH 7.4, 150 mM NaCl, 1 mM CaCl2, 1 mM MgCl2, 0.01% BSA, 37 C.
A further data set concerns the target beta-arrestin 2 (UniProt P32121). The note with it: 2'-F pyrimidines (2'F-C, 2'F-U); Kd assay buffer not stated separately; selection buffer F: 20 mM HEPES pH 7.4, 150 mM NaCl, 1 mM CaCl2, 1 mM MgCl2, 0.01% BSA, 37 C.

beta-arrestin 2, sequence (P32121 whole entry): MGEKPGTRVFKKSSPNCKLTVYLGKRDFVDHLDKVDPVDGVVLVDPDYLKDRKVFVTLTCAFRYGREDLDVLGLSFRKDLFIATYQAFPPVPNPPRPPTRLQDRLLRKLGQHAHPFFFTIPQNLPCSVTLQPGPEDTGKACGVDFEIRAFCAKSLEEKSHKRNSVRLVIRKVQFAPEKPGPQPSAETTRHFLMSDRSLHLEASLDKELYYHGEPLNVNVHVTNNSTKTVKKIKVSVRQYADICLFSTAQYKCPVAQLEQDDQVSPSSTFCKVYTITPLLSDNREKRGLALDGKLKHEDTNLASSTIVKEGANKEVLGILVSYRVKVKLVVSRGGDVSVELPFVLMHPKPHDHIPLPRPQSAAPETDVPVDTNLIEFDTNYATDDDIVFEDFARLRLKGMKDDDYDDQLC
beta-arrestin 1, sequence (P49407 whole entry): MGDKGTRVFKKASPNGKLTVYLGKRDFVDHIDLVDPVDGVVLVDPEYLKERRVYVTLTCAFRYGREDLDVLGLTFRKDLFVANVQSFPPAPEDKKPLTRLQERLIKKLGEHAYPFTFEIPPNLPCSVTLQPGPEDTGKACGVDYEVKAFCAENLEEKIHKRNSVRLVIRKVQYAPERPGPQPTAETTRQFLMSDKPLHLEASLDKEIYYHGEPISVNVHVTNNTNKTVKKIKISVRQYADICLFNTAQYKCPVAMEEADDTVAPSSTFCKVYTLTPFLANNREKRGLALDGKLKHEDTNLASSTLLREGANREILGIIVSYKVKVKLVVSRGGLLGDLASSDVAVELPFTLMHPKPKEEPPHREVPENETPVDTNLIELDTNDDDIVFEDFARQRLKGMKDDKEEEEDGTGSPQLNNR

Broadly, the Kd is the equilibrium constant for the complex coming apart. The low end stands for tighter binding, the high end for weaker binding. As for “GGGAGGACGAUGCGGAUCCUCGUCCCGUCACGGCAGAACCACGUCAGGCCUUCAACAGACGACUCGCUGAGGAUCCGAGA [beta-arr2A3]”, the Kd worked out at 0.749 µM with beta-arrestin 1 and 0.022 µM with beta-arrestin 2.

On to “GGGAGGACGAUGCGGCCAGGUGUAGACAGACGUGAGAGAUUGACCUGGCAGCAGCCAGACGACUCGCUGAGGAUCCGAGA [beta-arr2A2]”, for which the dissociation constant (Kd) stood at 2.16 µM with beta-arrestin 1 and 0.00413 µM with beta-arrestin 2.

Consider “GGGAGGACGAUGCGGAUUCCGUUAAGUAUCGCGUUAAACGCUAUGCGGACGCGUCAGACGACUCGCUGAGGAUCCGAGA [beta-arr2A1]”, for which the Kd with beta-arrestin 1 came to 0.966 µM; with beta-arrestin 2 it was 0.0198 µM.

(Values after paper PMC3988186.)
